Measured values: patent US20080207668A1, “PHARMACEUTICAL COMPOSITIONS OF HYD[…] PREVENTION OF OVERDOSE OR ABUSE” (New River Pharmaceuticals Inc., priority 2006, published 2008)
Where a name gives a salt, the structure may show the parent alone. Residues, ends and D or L forms follow the SMILES beside them. *: point of attachment. X5 = CC(=O)Oc1ccc2c3c1O[C@H]1C(O*)=CC[C@H]4[C@@H](C2)N(C)CC[C@]314; X2 = CN1CC[C@]23c4c5ccc(O)c4O[C@H]2C(O*)=CC[C@H]3[C@H]1C5

Assays:
[1] = Intranasal bioavailability of hydromorphone conjugates (plasma hydromorphone after intranasal dosing); format: in vivo, male Sprague-Dawley rats; settings: rat, relative to hydromorphone control
Protocol: Oral, and intranasal bioavailability studies of hydromorphone and hydromorphone conjugates were conducted in male Sprague-Dawley rats. Doses of hydromorphone hydrochloride and hydromorphone conjugates containing equivalent amounts of hydromorphone were administered in deionized water. Oral administration was in 0.5 ml by gavage needle. Intranasal doses were administered by placing 20 microliters into the nasal flares of rats anesthetized with isoflurane. Plasma was collected by retroorbital sinus puncture under isoflurane anesthesia. hydromorphone were determined by LC/MS/MS.
Male Sprague-Dawley rats were provided water ad libitum and doses were administered by placing 0.02 ml of water containing hydromorphone conjugates or hydromorphone […] into the nasal flares. All doses contained equivalent amounts of hydromorphone base. Plasma hydromorphone concentrations were measured by ELISA (hydromorphone, 102919, Neogen, Corporation, Lexington, Ky.) and/or LC/MS. The assay is specific for hydromorphone. These examples illustrate that hydromorphone conjugates decrease the peak level (Cmax) and total absorption (AUC) of hydromorphone as compared to those produced by equimolar (hydromorphone base) doses of hydromorphone HCl when given by the intranasal route of administration.
The following Tables include Hydromorphone amino acid and peptide HCl salt conjugates that were synthesized and tested. Both oral and intranasal bioavailabilities were measured. The bold values are the “corrected values”, that were calculated based on the bioavailability of the control (HM).

[2] = Oral bioavailability of hydromorphone conjugates (plasma hydromorphone after oral gavage); settings: rat, relative to hydromorphone control

Row | Structure (SMILES) | IN AUC % (corrected value based on bioavailability of control HM) [1] | IN Cmax % (corrected value based on control HM) [1] | Oral AUC % (corrected value based on bioavailability of control HM) [2] | Oral Cmax % (corrected value based on control HM) [2]
1 | CN1CC[C@]23c4c5ccc(O)c4O[C@H]2C(OC(=O)[C@H](Cc2ccccc2)NC(=O)[C@H](Cc2ccccc2)NC(=O)[C@H](Cc2ccccc2)NC(=O)[C@H](CCC(=O)O)NC(=O)[C@@H](N)CCC(=O)O)=CC[C@H]3[C@H]1C5 [EEFFF-HM, Glu2-Phe3-Hydromorphone.Dihydrochloride] (H-EEFFF-X2) | 52% | 57% | 79% | 78%
2 | CC[C@H](C)[C@H](NC(=O)[C@H](CCC(=O)O)NC(=O)[C@@H](N)CCC(=O)O)C(=O)OC1=CC[C@H]2[C@H]3Cc4ccc(O)c5c4[C@@]2(CCN3C)[C@H]1O5 [EEI-HM] | 59% | 88% | 56% | 73%
3 | CC(C)C[C@H](NC(=O)[C@H](CCC(=O)O)NC(=O)[C@@H](N)CCC(=O)O)C(=O)OC1=CC[C@H]2[C@H]3Cc4ccc(O)c5c4[C@@]2(CCN3C)[C@H]1O5 [EEL-HM] | 84% | 98% | 27% | 49%
4 | CC(C)[C@H](NC(=O)[C@H](CCC(=O)O)NC(=O)[C@@H](N)CCC(=O)O)C(=O)OC1=CC[C@H]2[C@H]3Cc4ccc(O)c5c4[C@@]2(CCN3C)[C@H]1O5 [EEV-HM] | 31% | 70% | 21% | 50%
5 | CC[C@H](C)[C@H](NC(=O)[C@H](Cc1ccccc1)NC(=O)[C@@H](N)Cc1ccccc1)C(=O)OC1=CC[C@H]2[C@H]3Cc4ccc(O)c5c4[C@@]2(CCN3C)[C@H]1O5 [FFI-HM] | 79% | 92% | 18% | 47%
6 | CC(C)C[C@H](NC(=O)[C@H](Cc1ccccc1)NC(=O)[C@@H](N)Cc1ccccc1)C(=O)OC1=CC[C@H]2[C@H]3Cc4ccc(O)c5c4[C@@]2(CCN3C)[C@H]1O5 [FFL-HM] | 92% | 96% | 11% | 24%
7 | CC(C)[C@H](NC(=O)[C@H](Cc1ccccc1)NC(=O)[C@@H](N)Cc1ccccc1)C(=O)OC1=CC[C@H]2[C@H]3Cc4ccc(O)c5c4[C@@]2(CCN3C)[C@H]1O5 [FFV-HM] | 98% | 103% | 8% | 36%
8 | CC[C@H](C)[C@H](NC(=O)CNC(=O)CN)C(=O)OC1=CC[C@H]2[C@H]3Cc4ccc(O)c5c4[C@@]2(CCN3C)[C@H]1O5 [GGI-HM] | 24% | 66% | 17% | 32%
9 | CC(C)C[C@H](NC(=O)CNC(=O)CN)C(=O)OC1=CC[C@H]2[C@H]3Cc4ccc(O)c5c4[C@@]2(CCN3C)[C@H]1O5 [GGL-HM] | 52% | 85% | 22% | 43%
10 | CC(C)[C@H](NC(=O)CNC(=O)CN)C(=O)OC1=CC[C@H]2[C@H]3Cc4ccc(O)c5c4[C@@]2(CCN3C)[C@H]1O5 [GGV-HM] | 51% | 73% | 53% | 63%
11 | CC[C@H](C)[C@H](NC(=O)[C@H](CCCCN)NC(=O)[C@@H](N)CCCCN)C(=O)OC1=CC[C@H]2[C@H]3Cc4ccc(O)c5c4[C@@]2(CCN3C)[C@H]1O5 [KKI-HM] | 68% | 85% | 24% | 56%
12 | CC(C)C[C@H](NC(=O)[C@H](CCCCN)NC(=O)[C@@H](N)CCCCN)C(=O)OC1=CC[C@H]2[C@H]3Cc4ccc(O)c5c4[C@@]2(CCN3C)[C@H]1O5 [KKL-HM] | 87% | 96% | 24% | 50%
13 | CC(C)[C@H](NC(=O)[C@H](CCCCN)NC(=O)[C@@H](N)CCCCN)C(=O)OC1=CC[C@H]2[C@H]3Cc4ccc(O)c5c4[C@@]2(CCN3C)[C@H]1O5 [KKV-HM] | 75% | 89% | 43% | 60%
14 | CC[C@H](C)[C@H](NC(=O)[C@@H]1CCCN1C(=O)[C@@H]1CCCN1)C(=O)OC1=CC[C@H]2[C@H]3Cc4ccc(O)c5c4[C@@]2(CCN3C)[C@H]1O5 [PPI-HM] | 77% | 95% | 21% | 60%
15 | CC(C)C[C@H](NC(=O)[C@@H]1CCCN1C(=O)[C@@H]1CCCN1)C(=O)OC1=CC[C@H]2[C@H]3Cc4ccc(O)c5c4[C@@]2(CCN3C)[C@H]1O5 [PPL-HM] | 53% | 70% | 22% | 45%
16 | CC(C)[C@H](NC(=O)[C@@H]1CCCN1C(=O)[C@@H]1CCCN1)C(=O)OC1=CC[C@H]2[C@H]3Cc4ccc(O)c5c4[C@@]2(CCN3C)[C@H]1O5 [PPV-HM] | 71% | 101% | 24% | 55%
17 | CC[C@H](C)[C@H](NC(=O)[C@H](Cc1ccccc1)NC(=O)[C@H](Cc1ccccc1)NC(=O)[C@H](Cc1ccc(O)cc1)NC(=O)[C@@H](N)Cc1ccc(O)cc1)C(=O)OC1=CC[C@H]2[C@H]3Cc4ccc(OC(C)=O)c5c4[C@@]2(CCN3C)[C@H]1O5 [YYFFI-HM-OAc] (H-YYFFI-X5) | 59% | 72% | 29% | 40%
18 | CC[C@H](C)[C@H](NC(=O)[C@H](Cc1ccccc1)NC(=O)[C@H](Cc1ccccc1)NC(=O)[C@H](Cc1ccc(O)cc1)NC(=O)[C@@H](N)Cc1ccc(O)cc1)C(=O)OC1=CC[C@H]2[C@H]3Cc4ccc(O)c5c4[C@@]2(CCN3C)[C@H]1O5 [YYFFI-HM] (H-YYFFI-X2) | 4% | 7% | 40% | 52%
19 | CC[C@H](C)[C@H](NC(=O)[C@H](Cc1ccc(O)cc1)NC(=O)[C@@H](N)Cc1ccc(O)cc1)C(=O)OC1=CC[C@H]2[C@H]3Cc4ccc(O)c5c4[C@@]2(CCN3C)[C@H]1O5 [YYI-HM] | 88% | 86% | 32% | 66%
20 | CC(C)C[C@H](NC(=O)[C@H](Cc1ccc(O)cc1)NC(=O)[C@@H](N)Cc1ccc(O)cc1)C(=O)OC1=CC[C@H]2[C@H]3Cc4ccc(O)c5c4[C@@]2(CCN3C)[C@H]1O5 [YYL-HM] | 74% | 75% | 12% | 30%
21 | CC(C)[C@H](NC(=O)[C@H](Cc1ccc(O)cc1)NC(=O)[C@@H](N)Cc1ccc(O)cc1)C(=O)OC1=CC[C@H]2[C@H]3Cc4ccc(O)c5c4[C@@]2(CCN3C)[C@H]1O5 [YYV-HM] | 73% | 73% | 30% | 53%
